Where a chain is given by its changes, count along the chain named. Names and notes keep the numbering of the source.
B1: Human canonical CRB1 (Crumbs homolog 1), P82279 p.C681Y (protein)
chain: FCNKNNTRCLSNSCQNNSTCKDFSKDNDCSCSDTANNLDKDCDNMKDPCFSNPCQGSATCVNTPGERSFLCKCPPGYSGTICETTIGSCGKNSCQHGGICHQDPIYPVCICPAGYAGRFCEIDHDECASSPCQNGAVCQDGIDGYSCFCVPGYQGRHCDLEVDECASDPCKNEATCLNEIGRYTCICPHNYSGVNCELEIDECWSQPCLNGATCQDALGAYFCDCAPGFLGDHCELNTDECASQPCLHGGLCVDGENRYSCNCTGSGFTGTHCETLMPLCWSKPCHNNATCEDSVDNYTCHCWPGYTGAQCEIDLNECNSNPCQSNGECVELSSEKQYGRITGLPSSFSYHEASGYVCICQPGFTGIHCEEDVNECSSNPCQNGGTCENLPGNYTCHCPFDNLSRTFYGGRDCSDILLGCTHQQCLNNGTCIPHFQDGQHGFSCLCPSGYTGSLCEIATTLSFEGDGFLWVKSGSVTTKGSVCNIALRFQTVQPMALLLFRSNRDVFVKLELLSGYIHLSIQVNNQSKVLLFISHNTSDGEWHFVEVIFAEAVTLTLIDDSCKEKCIAKAPTPLESDQSICAFQNSFLGGLPVGMTSNGVALLNFYNMPSTPSFVGCLQDIKIDWNHITLENISSGSSLNVKAGCVRKDWCESQPYQSRGRCINLWLSYQCDCHRPYEGPNCLREYVAGRFGQDDSTGYVIFTLDESYGDTISLSMFVRTLQPSGLLLALENSTYQYIRVWLERGRLAMLTPNSPKLVVKFVLNDGNVHLISLKIKPYKIELYQSSQNLGFISASTWKIEKGDVIYIGGLPDKQETELNGGFFKGCIQDVRLNNQNLEFFPNPTNNASLNPVLVNVTQGCAGDNSCKSNPCHNGGVCHSRWDDFSCSCPALTSGKACEEVQWCGFSPCPHGAQCQPVLQGFECIANAVFNGQSGQILFRSNGNITRELTNITFGFRTRDANVIILHAEKEPEFLNISIQDSRLFFQLQSGNSFYMLSLTSLQSVNDGTWHEVTLSMTDPLSQTSRWQMEVDNETPFVTSTIATGSLNFLKDNTDIYVGDRAIDNIKGLQGCLSTIEIGGIYLSYFENVHGFINKPQEEQFLKISTNSVVTGCLQLNVCNSNPCLHGGNCEDIYSSYHCSCPLGWSGKHCELNIDECFSNPCIHGNCSDRVAAYHCTCEPGYTGVNCEVDIDNCQSHQCANGATCISHTNGYSCLCFGNFTGKFCRQSRLPSTVCGNEKTNLTCYNGGNCTEFQTELKCMCRPGFTGEWCEKDIDECASDPCVNGGLCQDLLNKFQCLCDVAFAGERCEVDLADDLISDIFTTIGSVTVALLLILLLAIVASVVTSNKRATQGTYSPSRQEKEGSRVEMWNLMPPPAMERLI
B2: Human canonical CRB1 (Crumbs homolog 1), P82279 p.C948Y (protein)
chain: B1 chain with Y656C, C923Y
B3: Human canonical CRB1 (Crumbs homolog 1), P82279 p.C1321S (protein)
chain: B1 chain with Y656C, C1296S

Biological target: Human canonical CRB2 (Crumbs homolog 2), Q5IJ48-1
Sequence (Q5IJ48 29-1285): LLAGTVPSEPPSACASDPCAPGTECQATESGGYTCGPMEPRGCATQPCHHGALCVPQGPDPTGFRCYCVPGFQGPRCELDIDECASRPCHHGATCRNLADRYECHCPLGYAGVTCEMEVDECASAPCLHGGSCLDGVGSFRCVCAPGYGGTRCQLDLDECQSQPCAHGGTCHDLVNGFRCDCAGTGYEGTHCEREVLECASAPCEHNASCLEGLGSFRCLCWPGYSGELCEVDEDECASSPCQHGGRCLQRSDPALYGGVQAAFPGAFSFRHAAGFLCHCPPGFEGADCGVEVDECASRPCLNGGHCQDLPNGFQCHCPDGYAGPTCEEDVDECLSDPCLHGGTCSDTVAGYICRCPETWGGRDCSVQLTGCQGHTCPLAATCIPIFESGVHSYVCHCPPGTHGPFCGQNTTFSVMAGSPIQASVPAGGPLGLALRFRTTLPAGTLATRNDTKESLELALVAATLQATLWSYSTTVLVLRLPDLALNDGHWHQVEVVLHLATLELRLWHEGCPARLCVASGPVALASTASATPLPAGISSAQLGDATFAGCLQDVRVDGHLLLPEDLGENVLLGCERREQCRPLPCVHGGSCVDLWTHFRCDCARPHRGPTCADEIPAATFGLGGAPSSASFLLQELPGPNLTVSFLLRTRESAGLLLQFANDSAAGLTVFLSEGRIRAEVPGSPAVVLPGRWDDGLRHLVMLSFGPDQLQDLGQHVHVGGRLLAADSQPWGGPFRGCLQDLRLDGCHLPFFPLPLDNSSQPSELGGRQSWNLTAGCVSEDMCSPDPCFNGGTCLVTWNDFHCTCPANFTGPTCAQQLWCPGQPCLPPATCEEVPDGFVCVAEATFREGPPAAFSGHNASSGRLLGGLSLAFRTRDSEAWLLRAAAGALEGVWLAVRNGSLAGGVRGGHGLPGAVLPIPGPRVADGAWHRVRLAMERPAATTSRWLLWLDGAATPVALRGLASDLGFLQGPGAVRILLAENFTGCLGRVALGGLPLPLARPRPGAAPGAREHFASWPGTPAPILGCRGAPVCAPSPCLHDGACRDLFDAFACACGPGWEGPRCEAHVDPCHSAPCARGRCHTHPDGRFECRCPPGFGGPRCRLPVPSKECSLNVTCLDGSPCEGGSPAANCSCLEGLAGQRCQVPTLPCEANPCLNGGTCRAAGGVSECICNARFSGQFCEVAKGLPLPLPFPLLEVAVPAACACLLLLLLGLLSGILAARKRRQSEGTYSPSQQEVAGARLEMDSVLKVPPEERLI
Assay: co-IP (FLAG-IP) and Western blot quantification
Details: chain shown with the change; co-transfected in HEK293T cells; three biological replicates; parent: est. 1.0; read off a plot

Binder | ratio to parent
B1 | 1.1
B2 | 1
B3 | 1

Reference: publication PMC10992996
